Conditions in all cases: remark: other sources report otherwise
Experiment [1] addresses T1, EB1-GFP (C-terminally EGFP-His-tagged human EB1) (human), Q15691.
T1 chain: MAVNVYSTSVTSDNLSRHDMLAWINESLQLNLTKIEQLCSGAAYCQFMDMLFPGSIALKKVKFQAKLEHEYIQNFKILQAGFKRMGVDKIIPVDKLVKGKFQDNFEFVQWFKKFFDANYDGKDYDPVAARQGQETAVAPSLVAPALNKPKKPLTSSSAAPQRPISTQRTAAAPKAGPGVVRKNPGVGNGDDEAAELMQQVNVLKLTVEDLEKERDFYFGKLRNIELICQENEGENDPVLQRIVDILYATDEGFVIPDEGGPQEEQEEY
The experiment is described as follows: SEC-MALS; Superdex 200 10/30 with in-line multi-angle light scattering; 1 to 4 mg/ml injected in 100 µl (about 1 µM at the peak); 20 mM Tris-HCl pH 7.5, 300 mM NaCl, 2 mM DTT; room temperature; single experiments. (In general: SEC sorts molecules by how far they enter the pores of the column.)

The target in experiment [2] is T1, EB1-GFP (C-terminally EGFP-His-tagged …). As to the kind of experiment: AUC; fluorescence sedimentation velocity (GFP signal at 488 nm), 22°C; dilution series from about 500 to about 0.5 nM (monomer equivalents); 20 mM Tris-HCl pH 7.5, 300 mM NaCl, 0.2 mg/ml BSA, 2 mM DTT or 0.1 mM TCEP; samples incubated 16 hours at 22°C; dimer to monomers; apparent Kd.
Experiment [3] has as its target T2, EB1-GFP[A206K] (human), Q15691.
T2 chain: T1 chain
Described as above.

The term stoichiometry N denotes a count of units in the complex or per binding partner.

B1: EB1-GFP (C-terminally EGFP-His-tagged human EB1), Q15691 1-268 (natural protein)
chain: T1 chain
As for B1, the stoichiometry N in experiment [1] and in experiment [2] was 2 throughout.

B2: EB1-GFP[A206K], Q15691 1-268 (natural protein)
chain: T1 chain
With B2, the stoichiometry N in experiment [3] amounted to 2.
